B1: GST-CTD (C-terminal domain of HIV-1 integrase, aa 201-288) [HIV-1 (Hx3B)] / His6-SUMO-INI1_(183-304) [not stated] (parent complex)
chain 1: VDIIATDIQTKELQKQITKIQNFRVYYRDSRNPLWKGPAKLLWKGEGAVVIQDNSDIKVVPRRKAKIIRDYGKQMAGDDCVASRQDED
chain 2: PEVLVPIRLDMEIDGQKLRDAFTWNMNEKLMTPEMFSEILCDDLDLNPLTFVPAIASAIRQQIESYPTDSILEDQSDQRVIIKLNIHVGNISLVDQFEWDMSEKENSPEKFALKLCSELGLG

Variants of: B1
Experiment: Alpha assay; low salt conditions; parent: 100; read off a plot

With chain 1 K64A, chain 1 K66A as the variant, how does the percent of parent read?
The percent of parent was ~2 % of WT.

chain 1 W35E was tested. Which percent of parent did it give?
Its percent of parent is ~2 % of WT.

With chain 1 W35F as the variant, how does the percent of parent read?
Its percent of parent is ~90 % of WT.

How did the percent of parent turn out when chain 1 W35A was run?
Its percent of parent is ~17 % of WT.

For chain 1 W35K, which percent of parent is on record?
Its percent of parent is ~4 % of WT.

For chain 1 K44A, which percent of parent is on record?
The percent of parent was ~15 % of WT.

Source: paper PMC8115288 (2021)
